According to paper PMC4419837, “Purification and characterization of DR_2577 (SlpA) a major S-layer protein from Deinococcus radiodurans” (Frontiers in Microbiology, 2015):
“And” between values parts separate entries of the source, which are not always exact repeats. Identical values can stand only once.

Experiments:
[1] = target: the molecule itself; assay: SDS-PAGE; standard denaturation: Rotiload, not boiled and not treated with tris-2-carboxy-ethylphosphine; polyacrylamide/urea gel; mass estimated against prestained standard; dimer
[2] = target: the molecule itself; assay: native gel or EMSA; BN-PAGE, 3-12% gradient gel, 205 V for 5 h at 4°C, about 0.1 ug protein from the main SEC peak; mass estimated against NativeMARK; hexamer

B1: DR_2577 (SlpA), major S-layer protein from Deinococcus radiodurans (natural protein, UniProt Q9RRB6 23-1167, looked up)
chain: APVSAPQVPALTDVPAGHWAKDAIDRLVSRGVILGYPDGTFRGTQNLTRYEAAIIIARLLDQMRDGETPAGMTAEDMTALQNAIQELAADLAALGVRVSDLEANAVSKDDFARLEARIEEVAAAGGEQGATEALQGQIDDLTARVDEYDALRADVDDNASSIAALNDLTVLLNQDILDLQDRVSAVEAAQADFVQRSDFDALGGRVTTVETRVETVNNSLTGRIAALERNAFSVKPSLTIGYSVSRTSRNFDVDRLFPLNADGTVANNAFTSGGIDTDTGAQRRDFGDFGNASDPVVAGAAGLYGFADGVSYTVYFTDGSTATFDGLNPADYKVPTGKVIDTTKGRNGFGFNNLARYKEGSTDIGISLGFDTSGQFSQVTSGTGGSLFSTAGRLQVNQIDLNFGLVTGLPSDAYVDTNGNGKKDDGEATGRGTYLGSGGTAAILRDPAGNVYRPVFFRFKNATTQFSVGNNPVIVTLGQQQKFYFSDYVFDNNYDGRGDGFTVTVDGSNVPVIGAWKPQIKGVYGSRSGLDGTAEAGYGVYYRGVRAQITPVGTLTAGIHYAQEGRDMFGAAQNTTSTPSDVTTYGADLHGKAFGVELHSEYATSRVRPNTANAAVQTSNAFYARVATRKDNLAFDLNTPAAKFGNDTFGVSLYDLNYRKIDAGYNNVAGISEYGYGSYSRTSAQNIAYNPDTGVTAPFANLDRQAYTDANNDGTSDRNADGTVVATNTKIGQMGFGVKAAANLGPVAIGGYYDTSTGANGDNANRMTEAGGSAKVAYSIFSLRGTYNTLDSNRPQIYRDAAGTQIIGDAKVRRYAVQADVTPGLGLFVGAYYRDVNVNGVRSTTDRGLLGRGYLASSFEPGVGNNAYRTGLRCADNNFGTGTRDIDGVGGVLNPAVNLDQSRTATCFTSYGVEAGHAGDNANALVKDLFFRVGYSRVYVPTTATATTGDFSGSVTYGDARYDRKVGVANVRLAGSFSTTNTQLDSRPAGTRGAVGLIVRTDPLENVPFRPQFNGQVGYYTADNRVAAGNYNANATKYGAGVVLNDFLLPQTKIGVRYDGYMAQNRQYTPFDGDGTQGYFSDANNNRRTNLNGVYVEGAYQDLIFSYGTYTLSQKDLNGVEYGSGINNGQPARGQTFKISYKVNF
notes: DR_2577 (SlpA), S-layer protein of Deinococcus radiodurans R1; cysteines at residues 896 and 929; Native protein isolated from the bacterium; It infers that the dimers are held by an intermolecular disulfide bond, and only a computer prediction assigns that bond to Cys929
**Q.** For B1, which “stoichiometry N” value [1] is on record?
**A.** 2.25 and 2.17

**Q.** And the “stoichiometry N” value [2]?
**A.** 6.22 and 5.95
